1 molecule from patent publication US20140377215A1 (BOARD OF TRUSTEES OF THE UNIVERSITY OF ARKANSAS, published 2014) can be followed below.

The target in one experiment is [(POG)3PCG(POG)4]3. The experiment can be described thus: 1H-15N HSQC NMR titration.
In experiment [1] the target is [11PROXYL-(POG)3PCG(POG)4]3. As to the kind of experiment: 1H-15N HSQC NMR titration.

B1: collagen-binding domain (CBD), s3b (Gly893-Lys1008) peptide derived from Clostridium histolyticum cl (other)
chain: GNEKLKEKENNDSSDKATVIPNFNTTMQGSLLGDDSRDYYSFEVKEEGEVNIELDKKDEFGVTWTLHPESNINDRITYGQVDGNKVSNKVKLRPGKYYLLVYKYSGSGNYELRVNK
notes: range 893-1008
With B1, the binding result in experiment [(POG)3PCG(POG)4]3 and in experiment [1] was “binds” throughout.
